According to publication PMC9352680, “A comprehensive thermodynamic model for RNA binding by the Saccharomyces cerevisiae Pumilio protein PUF4”:

T1: PUF4 RNA-binding domain (Saccharomyces cerevisiae, UniProt P25339 537-888)
T1 sequence: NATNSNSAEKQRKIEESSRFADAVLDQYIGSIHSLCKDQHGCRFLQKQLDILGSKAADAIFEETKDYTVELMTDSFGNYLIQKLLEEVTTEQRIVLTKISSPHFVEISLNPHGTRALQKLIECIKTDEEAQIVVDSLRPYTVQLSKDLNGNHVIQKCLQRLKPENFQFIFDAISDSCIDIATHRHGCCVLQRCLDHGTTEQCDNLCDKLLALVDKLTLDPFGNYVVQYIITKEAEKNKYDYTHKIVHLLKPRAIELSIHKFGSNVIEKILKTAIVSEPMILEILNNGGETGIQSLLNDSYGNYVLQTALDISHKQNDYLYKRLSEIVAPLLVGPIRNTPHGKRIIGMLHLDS


What follows are binders tested against T1, PUF4 RNA-binding domain (assay: Mg; RNA-MaP; 20 mM Na-HEPES pH 7.4, 30 mM KOAc, 0.75 mM MgCl2, 0.1% Tween-20, 5% glycerol, 0.1 mg/mL BSA, 2 mM DTT; 25 C; 0.0125-409.6 nM protein). Settings: tags: N-His6-TEV cleaved; C-SNAP kept, Cy3B-labelled; label: tethered on chip by stalled RNA polymerase.

Row | Binder | Kd
1 | UCUCUUUGUAUAUGGUCUCUU (ssRNA) [Ib_S1_P4E.1_K4.1_C4.1_H4.1_A4.1_F4.1_[T8G]_[A9G]_T4.1] | 47.2 nM
2 | UCUCUUCGUAUAUUAUCUCUU (ssRNA) [Ia_S1_P4E.1_K4.1_C4.1_H4.1_[T1C]_A4.1_F4.1_T4.1] | 20.9 nM
3 | Ic_S2_P4E.1_K4.1_C4.1_H4.1_A4.1_[T5A]_[A6T]_[T7A]_F4.1_[A9G]_T4.1 (ssRNA) RNA: UUUGAUUAAUAUGAUAUCGUUCUUUCUUGUAAUAUGUUCUUUCUCGAUAUCAUAUUAAUCUUU | 11.1 nM
4 | Ic_S2_P4E.1_K4.1_C4.1_H4.1_A4.1_[A6G]_[T7C]_F4.1_[T8C]_[A9T]_T4.1 (ssRNA) RNA: UUUGAUUAAUAUGAUAUCGUUCUUUCUUGUAUGCCUUUCUUUCUCGAUAUCAUAUUAAUCUUU | 404 nM
5 | Ic_S2_P4E.1_K4.1_C4.1_H4.1_A4.1_[A6G]_[T7C]_F4.1_[T8G]_[A9G]_T4.1 (ssRNA) RNA: UUUGAUUAAUAUGAUAUCGUUCUUUCUUGUAUGCGGUUCUUUCUCGAUAUCAUAUUAAUCUUU | 1310 nM
6 | Ic_S2_P4E.1_K4.1_C4.1_H4.1_A4.1_[A6G]_[T7C]_F4.1_[A9T]_T4.1 (ssRNA) RNA: UUUGAUUAAUAUGAUAUCGUUCUUUCUUGUAUGCUUUUCUUUCUCGAUAUCAUAUUAAUCUUU | 23.9 nM
7 | Ic_S2_P4E.1_K4.1_C4.1_H4.1_A4.1_[A6G]_[T7G]_F4.1_[T8C]_[A9T]_T4.1 (ssRNA) RNA: UUUGAUUAAUAUGAUAUCGUUCUUUCUUGUAUGGCUUUCUUUCUCGAUAUCAUAUUAAUCUUU | 619 nM
8 | Ic_S2_P4E.1_K4.1_C4.1_H4.1_A4.1_[T5A]_F4.1_[T8G]_[A9T]_T4.1 (ssRNA) RNA: UUUGAUUAAUAUGAUAUCGUUCUUUCUUGUAAAUGUUUCUUUCUCGAUAUCAUAUUAAUCUUU | 164 nM
9 | Ic_S2_P4E.1_K4.1_C4.1_H4.1_A4.1_[A6G]_F4.1_[T8G]_[A9T]_T4.1 (ssRNA) RNA: UUUGAUUAAUAUGAUAUCGUUCUUUCUUGUAUGUGUUUCUUUCUCGAUAUCAUAUUAAUCUUU | 17 nM
10 | Ic_S2_P4E.1_K4.1_C4.1_H4.1_A4.1_[T5A]_[A6T]_F4.1_[T8A]_[A9T]_T4.1 (ssRNA) RNA: UUUGAUUAAUAUGAUAUCGUUCUUUCUUGUAAUUAUUUCUUUCUCGAUAUCAUAUUAAUCUUU | 36.2 nM
11 | Ic_S2_P4E.1_K4.1_C4.1_H4.1_A4.1_[A6G]_[T7C]_F4.1_[T8C]_T4.1 (ssRNA) RNA: UUUGAUUAAUAUGAUAUCGUUCUUUCUUGUAUGCCAUUCUUUCUCGAUAUCAUAUUAAUCUUU | 29.3 nM
12 | Ic_S2_P4E.1_K4.1_C4.1_H4.1_A4.1_[T5A]_[A6T]_F4.1_[T8G]_[A9T]_T4.1 (ssRNA) RNA: UUUGAUUAAUAUGAUAUCGUUCUUUCUUGUAAUUGUUUCUUUCUCGAUAUCAUAUUAAUCUUU | 117 nM
13 | Ic_S2_P4E.1_K4.1_C4.1_H4.1_A4.1_[T5A]_[A6T]_F4.1_[A9T]_T4.1 (ssRNA) RNA: UUUGAUUAAUAUGAUAUCGUUCUUUCUUGUAAUUUUUUCUUUCUCGAUAUCAUAUUAAUCUUU | 22.4 nM
14 | Ic_S2_P4E.1_K4.1_C4.1_H4.1_A4.1_[A6G]_F4.1_[T8C]_[A9T]_T4.1 (ssRNA) RNA: UUUGAUUAAUAUGAUAUCGUUCUUUCUUGUAUGUCUUUCUUUCUCGAUAUCAUAUUAAUCUUU | 57 nM
15 | Ic_S2_P4E.1_K4.1_C4.1_H4.1_A4.1_[T5A]_[T7A]_F4.1_[A9G]_T4.1 (ssRNA) RNA: UUUGAUUAAUAUGAUAUCGUUCUUUCUUGUAAAAUGUUCUUUCUCGAUAUCAUAUUAAUCUUU | 21 nM
16 | Ic_S2_P4E.1_K4.1_C4.1_H4.1_A4.1_[T5A]_[A6T]_F4.1_[T8C]_[A9C]_T4.1 (ssRNA) RNA: UUUGAUUAAUAUGAUAUCGUUCUUUCUUGUAAUUCCUUCUUUCUCGAUAUCAUAUUAAUCUUU | 315 nM
17 | Ic_S2_P4E.1_K4.1_C4.1_H4.1_A4.1_[T5A]_[T7C]_F4.1_[A9G]_T4.1 (ssRNA) RNA: UUUGAUUAAUAUGAUAUCGUUCUUUCUUGUAAACUGUUCUUUCUCGAUAUCAUAUUAAUCUUU | 18.3 nM
18 | Ic_S2_P4E.1_K4.1_C4.1_H4.1_A4.1_[A6G]_[T7G]_F4.1_[A9T]_T4.1 (ssRNA) RNA: UUUGAUUAAUAUGAUAUCGUUCUUUCUUGUAUGGUUUUCUUUCUCGAUAUCAUAUUAAUCUUU | 224 nM
19 | Ic_S2_P4E.1_K4.1_C4.1_H4.1_A4.1_[A6G]_[T7C]_F4.1_[T8A]_T4.1 (ssRNA) RNA: UUUGAUUAAUAUGAUAUCGUUCUUUCUUGUAUGCAAUUCUUUCUCGAUAUCAUAUUAAUCUUU | 239 nM
20 | Ic_S2_P4E.1_K4.1_C4.1_H4.1_A4.1_[A6G]_F4.1_[T8C]_[A9C]_T4.1 (ssRNA) RNA: UUUGAUUAAUAUGAUAUCGUUCUUUCUUGUAUGUCCUUCUUUCUCGAUAUCAUAUUAAUCUUU | 32.5 nM
21 | Ic_S2_P4E.1_K4.1_C4.1_H4.1_A4.1_[T5A]_[A6T]_F4.1_[T8C]_[A9G]_T4.1 (ssRNA) RNA: UUUGAUUAAUAUGAUAUCGUUCUUUCUUGUAAUUCGUUCUUUCUCGAUAUCAUAUUAAUCUUU | 649 nM
22 | Ic_S2_P4E.1_K4.1_C4.1_H4.1_A4.1_[T5A]_[A6T]_F4.1_[A9C]_T4.1 (ssRNA) RNA: UUUGAUUAAUAUGAUAUCGUUCUUUCUUGUAAUUUCUUCUUUCUCGAUAUCAUAUUAAUCUUU | 44.7 nM

Row | Binder | Kd
23 | Ic_S2_P4E.1_K4.1_C4.1_H4.1_A4.1_[T5A]_[T7A]_F4.1_[A9C]_T4.1 (ssRNA) RNA: UUUGAUUAAUAUGAUAUCGUUCUUUCUUGUAAAAUCUUCUUUCUCGAUAUCAUAUUAAUCUUU | 65.2 nM
24 | Ic_S2_P4E.1_K4.1_C4.1_H4.1_A4.1_[T5A]_F4.1_[T8A]_[A9C]_T4.1 (ssRNA) RNA: UUUGAUUAAUAUGAUAUCGUUCUUUCUUGUAAAUACUUCUUUCUCGAUAUCAUAUUAAUCUUU | 23.4 nM
25 | Ic_S2_P4E.1_K4.1_C4.1_H4.1_A4.1_[A6G]_[T7C]_F4.1_[T8A]_[A9C]_T4.1 (ssRNA) RNA: UUUGAUUAAUAUGAUAUCGUUCUUUCUUGUAUGCACUUCUUUCUCGAUAUCAUAUUAAUCUUU | 848 nM
26 | Ic_S2_P4E.1_K4.1_C4.1_H4.1_A4.1_[A6G]_[T7C]_F4.1_[T8A]_[A9T]_T4.1 (ssRNA) RNA: UUUGAUUAAUAUGAUAUCGUUCUUUCUUGUAUGCAUUUCUUUCUCGAUAUCAUAUUAAUCUUU | 155 nM
27 | Ic_S2_P4E.1_K4.1_C4.1_H4.1_A4.1_[T5A]_[T7C]_F4.1_[T8C]_[A9T]_T4.1 (ssRNA) RNA: UUUGAUUAAUAUGAUAUCGUUCUUUCUUGUAAACCUUUCUUUCUCGAUAUCAUAUUAAUCUUU | 242 nM
28 | Ic_S2_P4E.1_K4.1_C4.1_H4.1_A4.1_[T5A]_[T7C]_F4.1_[T8A]_[A9C]_T4.1 (ssRNA) RNA: UUUGAUUAAUAUGAUAUCGUUCUUUCUUGUAAACACUUCUUUCUCGAUAUCAUAUUAAUCUUU | 528 nM
29 | Ic_S2_P4E.1_K4.1_C4.1_H4.1_A4.1_[A6G]_F4.1_[T8G]_[A9G]_T4.1 (ssRNA) RNA: UUUGAUUAAUAUGAUAUCGUUCUUUCUUGUAUGUGGUUCUUUCUCGAUAUCAUAUUAAUCUUU | 215 nM
30 | Ic_S2_P4E.1_K4.1_C4.1_H4.1_A4.1_[A6G]_[T7G]_F4.1_[T8C]_[A9G]_T4.1 (ssRNA) RNA: UUUGAUUAAUAUGAUAUCGUUCUUUCUUGUAUGGCGUUCUUUCUCGAUAUCAUAUUAAUCUUU | 1670 nM
31 | Ic_S2_P4E.1_K4.1_C4.1_H4.1_A4.1_[A6G]_F4.1_[T8A]_[A9C]_T4.1 (ssRNA) RNA: UUUGAUUAAUAUGAUAUCGUUCUUUCUUGUAUGUACUUCUUUCUCGAUAUCAUAUUAAUCUUU | 55.8 nM
32 | Ic_S2_P4E.1_K4.1_C4.1_H4.1_A4.1_[T5A]_F4.1_[T8A]_[A9G]_T4.1 (ssRNA) RNA: UUUGAUUAAUAUGAUAUCGUUCUUUCUUGUAAAUAGUUCUUUCUCGAUAUCAUAUUAAUCUUU | 67.7 nM
33 | Ic_S2_P4E.1_K4.1_C4.1_H4.1_A4.1_[T5A]_[T7A]_F4.1_[T8C]_[A9C]_T4.1 (ssRNA) RNA: UUUGAUUAAUAUGAUAUCGUUCUUUCUUGUAAAACCUUCUUUCUCGAUAUCAUAUUAAUCUUU | 385 nM
34 | Ic_S2_P4E.1_K4.1_C4.1_H4.1_A4.1_[A6G]_F4.1_[T8G]_[A9C]_T4.1 (ssRNA) RNA: UUUGAUUAAUAUGAUAUCGUUCUUUCUUGUAUGUGCUUCUUUCUCGAUAUCAUAUUAAUCUUU | 40 nM
35 | Ic_S2_P4E.1_K4.1_C4.1_H4.1_A4.1_[T5A]_[T7C]_F4.1_[T8A]_[A9G]_T4.1 (ssRNA) RNA: UUUGAUUAAUAUGAUAUCGUUCUUUCUUGUAAACAGUUCUUUCUCGAUAUCAUAUUAAUCUUU | 1140 nM
36 | Ic_S2_P4E.1_K4.1_C4.1_H4.1_A4.1_[T5A]_[A6T]_[T7A]_F4.1_T4.1 (ssRNA) RNA: UUUGAUUAAUAUGAUAUCGUUCUUUCUUGUAAUAUAUUCUUUCUCGAUAUCAUAUUAAUCUUU | 1.45 nM
37 | Ic_S2_P4E.1_K4.1_C4.1_H4.1_A4.1_[T5A]_[T7C]_F4.1_[A9C]_T4.1 (ssRNA) RNA: UUUGAUUAAUAUGAUAUCGUUCUUUCUUGUAAACUCUUCUUUCUCGAUAUCAUAUUAAUCUUU | 26.1 nM
38 | Ic_S2_P4E.1_K4.1_C4.1_H4.1_A4.1_[A6G]_[T7C]_F4.1_[T8A]_[A9G]_T4.1 (ssRNA) RNA: UUUGAUUAAUAUGAUAUCGUUCUUUCUUGUAUGCAGUUCUUUCUCGAUAUCAUAUUAAUCUUU | 1090 nM
39 | Ic_S2_P4E.1_K4.1_C4.1_H4.1_A4.1_[T5A]_[T7C]_F4.1_[A9T]_T4.1 (ssRNA) RNA: UUUGAUUAAUAUGAUAUCGUUCUUUCUUGUAAACUUUUCUUUCUCGAUAUCAUAUUAAUCUUU | 14.6 nM
40 | Ic_S2_P4E.1_K4.1_C4.1_H4.1_A4.1_[T5A]_[A6T]_F4.1_[T8C]_[A9T]_T4.1 (ssRNA) RNA: UUUGAUUAAUAUGAUAUCGUUCUUUCUUGUAAUUCUUUCUUUCUCGAUAUCAUAUUAAUCUUU | 48 nM
41 | Ic_S2_P4E.1_K4.1_C4.1_H4.1_A4.1_[T5A]_[T7C]_F4.1_[T8A]_T4.1 (ssRNA) RNA: UUUGAUUAAUAUGAUAUCGUUCUUUCUUGUAAACAAUUCUUUCUCGAUAUCAUAUUAAUCUUU | 57.8 nM
42 | UCUCUUUGUAUAUGCUCUCUU (ssRNA) [Ib_S1_P4E.1_K4.1_C4.1_H4.1_A4.1_F4.1_[T8G]_[A9C]_T4.1] | 26.8 nM
43 | UCUCUUUGUAUAUGUUCUCUU (ssRNA) [Ic_S1_P4E.1_K4.1_C4.1_H4.1_A4.1_F4.1_[T8G]_[A9T]_T4.1] | 15.6 nM
44 | UCUCUUUGUAAUUAUCUCUU (ssRNA) [Ib_S1_P3E.1_K3.1_C3.1_H3.1_A3.1_[T5A]_[A6T]_F3.1_T3.1] | 155 nM
